Patent US20060286112A1 (published 2006)

Tests used:
[1] = molecular target: T1, human VLA-1 (alpha 1/beta 1, CD49a/CD29) on IL-2 stimulated human PBMC / T cells (human, UniProt P56199 29-1179; P05556 21-798); assay: cell-based or functional assay
[2] = molecular target: T1, human VLA-1 (alpha 1/beta 1, …); assay: cell-based or functional assay; remark: listed apart in the source
[3] = molecular target: T1, human VLA-1 (alpha 1/beta 1, …); assay: cell-based or functional assay; remark: listed apart in the source
[4] = molecular target: T2, human VLA-1 α1 subunit (CD49a), full-length, on transfected CHO cells (human, UniProt P56199 29-1179); assay: cell-based or functional assay
[5] = molecular target: T1, human VLA-1 (alpha 1/beta 1, …); assay: cell-based or functional assay; remark: listed apart in the source
[6] = molecular target: T2, human VLA-1 α1 subunit (CD49a), …; assay: cell-based or functional assay; remark: listed apart in the source
[7] = molecular target: T3, human CD49a I domain K88N (human, UniProt P56199 151-364, K88N); assay: ELISA on secreted mutant I domain
T3 construct: domain: I domain; not shown: myc and His tags

[8] = molecular target: T4, human CD49a I domain I11F (human, UniProt P56199 151-364, I11F); assay: ELISA on secreted mutant I domain
T4 construct: domain: I domain; not shown: myc and His tags

[9] = molecular target: T5, human CD49a I domain K142Q (human, UniProt P56199 151-364, K142Q); assay: ELISA on secreted mutant I domain
T5 construct: domain: I domain; text prints KI42Q once; not shown: myc and His tags

[10] = molecular target: T6, human CD49a I domain with residues 91-96 VQRGGR replaced by mouse GRRGGL (human, UniProt P56199 151-364, V91G; Q92R; R96L); assay: ELISA on secreted mutant I domain
T6 construct: domain: I domain; also called V91G, Q92R, R96L; not shown: myc and His tags

[11] = molecular target: T7, human CD49a I domain E48K (human, UniProt P56199 151-364, E48K); assay: ELISA on secreted mutant I domain
T7 construct: domain: I domain; not shown: myc and His tags

[12] = molecular target: T8, human CD49a I domain S162H (human, UniProt P56199 151-364, S162H); assay: ELISA on secreted mutant I domain
T8 construct: domain: I domain; not shown: myc and His tags

[13] = molecular target: T9, human CD49a I domain E66A (human, UniProt P56199 151-364, E66A); assay: ELISA on secreted mutant I domain
T9 construct: domain: I domain; not shown: myc and His tags

[14] = molecular target: T10, human CD49a I domain T204A (human, UniProt P56199 151-364, T204A); assay: ELISA on secreted mutant I domain
T10 construct: domain: I domain; not shown: myc and His tags

[15] = molecular target: T11, mouse VLA-1 on mouse splenocytes (mouse, UniProt Q3V3R4 29-1179; P09055 21-798); assay: FACS on mouse splenocytes
T11 construct: whole, on cells; native protein on primary cells

[16] = molecular target: T1, human VLA-1 (alpha 1/beta 1, …); assay: FACS on IL-2 stimulated human PBMC
[17] = molecular target: T2, human VLA-1 α1 subunit (CD49a), …; assay: FACS on CHO-α1 cells

B1: 3.9 (antibody, V domains shown)
VH: QVQLVESGGGVVQPGRSLRLSCAASGFTFSSYGMHWVRQAPGKGLEWVAVIWYDGSNKYYADSVKGRFTISRDNSKNTLYLQMNSLRAEDTAVYYCARDNGAMVRGVIISYYYGMDVWGQGTTVTVSS
VL: SYDLTQPSSVSVSPGQTASIACSGDRLGNKYACWYQQKPGQSPVLVIYKDSKRPSGIPERFSGSNSGNTATLTISGTQAMDEADYYCQAWDSSTVVFGGGTKLTVL
notes: human IgG2 or IgG4
[1]
  % adhesion of T cells to collagen IV vs no antibody, 0.5 nM mAb, 10 ng/ml PMA: 91.9%
  % adhesion of T cells to collagen IV vs no antibody, 5 nM mAb, 10 ng/ml PMA: 99.6%
[2]
  % adhesion of IL-2 activated T cells to collagen IV vs no antibody, 10 µg/ml, +PMA: 24.6%
  % adhesion of IL-2 activated T cells to collagen IV vs no antibody, 10 µg/ml, -PMA: 45.8%
[3]
  % adhesion of T cells to collagen IV vs no antibody, 0.5 nM mAb, no PMA: 91.5%
  % adhesion of T cells to collagen IV vs no antibody, 5 nM mAb, no PMA: 68%
[4]
  relative inhibition at an optimal concentration, CHO-VLA-1 adhesion to collagen IV: > 80%
[5]
  T cell adhesion to immobilized collagen IV, relative estimated IC50: > 5 nM
[6]
  IC50, adhesion of CHO-VLA-1 cells to collagen IV: 0.38 nM
[7]
  binding result: binds
[8]
  binding result: binds
[9]
  binding result: binds
[10]
  binding result: binds
[11]
  binding result: no binding
[12]
  binding result: binds
[13]
  binding result: binds
[14]
  binding result: binds

B2: 1.7 (antibody, V domains shown)
VH: QVQLQESGPGLVKPSQTLSLTCTVSGGSISRGNYYWSWIRQHPGKGLEWIGYIFYSGSTYYNPSLKSRVTISVDTSKNQFSLKLSSVTAADTAVYYCARDGYGMDVWGQGTTVTVSS
VL: EIVLTQSPGTLSLSPGERATLSCRASQSVSSSYLVWYQQKPGQAPRLLLYDASSRATGIPDRFSGSGSGTDFTLTISRLEPEDFAVYYCQQYGNSPLTFGGGTKVEIK
notes: human IgG2 or IgG4; also called antibody 1.7
[1]
  % adhesion of T cells to collagen IV vs no antibody, 0.5 nM mAb, 10 ng/ml PMA: 74.5%
  % adhesion of T cells to collagen IV vs no antibody, 5 nM mAb, 10 ng/ml PMA: 44.1%
[2]
  % adhesion of IL-2 activated T cells to collagen IV vs no antibody, 10 µg/ml, +PMA: 33.8%
  % adhesion of IL-2 activated T cells to collagen IV vs no antibody, 10 µg/ml, -PMA: 57%
[3]
  % adhesion of T cells to collagen IV vs no antibody, 0.5 nM mAb, no PMA: 36.9%
[15]
  binding result: binds

B3: 3.2 (antibody, V domains shown)
VH: QVQLVESGGGVVQPGRSLRLSCAASGFTFSSYGIHWVRQAPGKGLEWVAVIWYDGSDIYYADSVKGRFTISRDNSKNTLYLQMNSLRAEDTALYYCARESSGWTFDYWGQGTLVTVSS
VL: QSALTQPASVSGSPGQSITISCTGTSSDVGGYNYVSWYQQHPGKAPKLMIYEVSNRPSGISNRFSGSKSGNTASLTISGLQAEDEADYYCSSYTSSSTIIFGGGTKLTVL
notes: human IgG2 or IgG4
[16]
  binding result: binds

B4: 7.38 (antibody, V domains shown)
VH: QVQLQESGPGLVKPSETLSLTCTVSGGSFSSYYWSWIRQPAGKGLEWIGRIYTSGSTYYNPSLKSRVTMSVDTSKNQFSLKLNSVTAADTAVYYCAREGYDFWNDYYNYYYGMDVWGQGTTVTVS
VL: EIVLTQSPGTLSLSPGERATLSCRASQSVSSRYLAWYQQKPGQAPRLLIYGASSRATGIPDRFSGSGSGTDFTLTISRLEPEDFAVYYCQQYGSAFTFGGGTKVEIK
notes: human IgG2 or IgG4
[17]
  binding result: binds
